# In US20250025535A1, “A COMPOSITION COMPRISING NANOSIZED ACTIVE PHARMACEUTICAL INGREDIENT” (NANOFORM FINLAND OYJ, priority 2021, published 2025):
# Experiment: Sedimentation of insulin suspension in fish oil
# Assay type: physicochemical
# Conditions: 10 mg in 1 ml fish oil, room temperature, t=0, 30 min, 60 min, 24 h; compared with bulk insulin
# Protocol: A: t=0 min; B: t=30 min; C: t=60 min; D: t=24 h.
# Nanosized insulin or bulk insulin (10 mg, Sigma) was added to 1 ml of fish oil, mixed by vortexing and allowed to stand at room temperature.
substance,measurement,value
insulin [nanosized insulin],sedimentation in fish oil as a function of time,significantly slower
